Assay [1] has as its target human CCR2 (full-length, Genbank Accession No. NM-000648) on membranes of Ba/F3-hCCR2 cells (human) (UniProt P41597). Briefly: competition with 30 pM radioiodinated human MCP1, SPA, Ba/F3-hCCR2 cell membranes.
Assay [2] has the same target. Briefly: competition with radioiodinated human MCP1, SPA, membranes of cells containing CCR2.

What is called IC50 is the concentration that gives 50% inhibition. A lower IC50 goes with higher potency. One may read the Ki as a measure of affinity in units of concentration, obtained from inhibition or displacement. Higher therefore signals a looser hold on the target. In assay [1], “Recombinant human MCP1 (rhMCP1) (R & D Systems) (from UniProt P13500 24-99) (ligand)” displayed an IC50 of 0.183 nM and a Ki of 0.0845 nM.

In assay [1], “hMCP1-mIg (NH2-human MCP1-Mouse Ig Heavy chain γ1 (hinge-CH2-CH3)-COOH) (Fc fusion)” registered an IC50 of 0.624 nM and an inhibition constant Ki of 0.287 nM. Besides, the fold less potent than unlabeled rhMCP1 in assay [2] fell in the range of 5 to 12 fold.

Source of the values: patent publication US20070036750A1.
